No end group written: not given here.
Key:
[1] = target: T1, soluble IGF-1R (recombinant human IGF-1R extracellular domain, R&D Systems Cat. # 391-GR/CF) (human, UniProt P08069 31-935); test: phage ELISA
T1 construct: extracellular domain; Bought protein; coated on plates (phage ELISA, TRF) or Eu-labelled (TR-FRET); also called sIGF-1R; rhIGF-1R

[2] = target: T2, soluble human insulin receptor-immunoglobulin heavy chain chimera (human, UniProt P06213 28-956, limits assumed); test: phage ELISA
T2 construct: extracellular domain; also called sIR-Fc; IR (prepared according to Bass et al., 1996); not shown: immunoglobulin heavy chain constant domains (Bass et al., 1996)

Binder	ratio over background [1]	ratio over background [2]	IR/IGF-1R ratio comparison [2]
YRGMLVLGRSSDGAGKVAFERPARIGQTVFAVNFYDWFV (on phage) [A6L-0-E6-IR]	31 ratio	1.8 ratio	–
RGAVAGFHDQFYDWFDRQVSRVHKFG (on phage) [H2CA-4-H9-IGFR]	5.6 ratio	–	–
LGYQEPFQQNFYDWFVRQVSGAENAG (on phage) [H2CA-3-E8-IGFR]	6.3 ratio	2.2 ratio	–
PDLHKGFYAQLAQLIRGQLLS (on phage) [20E2B-3-E3-IGFR]	16.3 ratio	1.3 ratio	–
GFREGSFYDWFQAQVT (on phage) [E4Dα-2-D11-IR]	11.1 ratio	3.3 ratio	–
RLFYCGIQALGANLGYSGCV (on phage) [R20α-4-20A12-IR]	39.9 ratio	2.4 ratio	–
GRTMAVMAAGGPDDPFYHKLSELVQGG (on phage) [B6Hα-2-D6-IR]	–	1 ratio	–
SSYGCDGFYLMLFSLGLVASQELEC (on phage) [20C-3-A1-IGFR]	20.8 ratio	1.5 ratio	–
VEGRGLFYDLLRQLLARRQNG (on phage) [20E2B-3-C6-IGFR]	16.8 ratio	1.1 ratio	–
TSEVQRRSQDNFYDWFVAQVA (on phage) [A6S-3-E2-IR]	24.7 ratio	9.8 ratio	–
DRAFYNGLRDLVGAVYGAWD (on phage) [R20α-4-20C11-IR]	30.8 ratio	3 ratio	–
VGYQGQGDENFYDWFIRQVSGRLGVQ (on phage) [H2CA-4-F5-IGFR]	9.7 ratio	0.8 ratio	–
IQQELTFYDLLHRLVRSELGS (on phage) [20E2B-3-D2-IGFR]	12.4 ratio	1.1 ratio	–
QGGSASFYDAIDRLLRMRIGG (on phage) [20E2A-4-F11-IGFR]	18.8 ratio	1.3 ratio	–
FYDAIDQLVRGSARAGGTRD (on phage) [R20α-3-20E2-IR]	39.9 ratio	3.1 ratio	–
RGCNDDGGKGWSDDPFYHKLSELICGG (on phage) [B6Hα-1-A2-IR]	–	1 ratio	–
EAASLGSQDRNFYDWFVRQVV (on phage) [A6S-2-D11-IR]	37.4 ratio	13.5 ratio	–
FFYDCLAALLQGVARYHDLCAVEIT (on phage) [20C-4-C7-IGFR]	28 ratio	1.3 ratio	–
KLHNLMFYYGLQRLVWGAGLG (on phage) [20E23-4-H3-IGFR]	14.8 ratio	1.1 ratio	–
RGIVAMVEATEVGSDHDPFYHKLSELVQGS (on phage) [B6Hα-2-C7-IR]	–	1 ratio	–

Binder	ratio over background [1]	ratio over background [2]	IR/IGF-1R ratio comparison [2]
VERSASSQDGNFYDWFVVQIR (on phage) [A6S-2-D1-IR]	30.6 ratio	12 ratio	–
FRTLAAQHDSFYDWFDRQVSGAAGER (on phage) [H2CA-3-C11-IGFR]	3.3 ratio	1.6 ratio	–
VGRASGFPENFYDWFGRQLSLQSGEQ (on phage) [M2CA-4-H6-IGFR]	10.5 ratio	0.7 ratio	–
RGMKEEVLVGGSTDPFYHKLSELLQGS (on phage) [B6Hα-3-F11-IR]	18.7 ratio	1.6 ratio	–
RGQSDAFYSGLWALIGLSDG (on phage) [R20β-4-A6-IR]	25.9 ratio	1.5 ratio	–
YSCGDGFYSLLSDLLGGQFRC (on phage) [20E22-4-H12-IGFR]	9.7 ratio	0.8 ratio	–
GGTEVDFYRALERLVRGQLGL (on phage) [20E2B-3-D8-IGFR]	17.7 ratio	1.6 ratio	–
SQAGSAFYAWFDQVLRTVHSA (on phage) [20E2Bβ-4-G6-IR]	6.2 ratio	–	–
LQPCSGFYECIERLIGVKLSG (not fully specified (bridges); cysteine pairing not given here, on phage) [20E2Bβ-4-G7-IR]	25.2 ratio	1.6 ratio	–
RCEEKQAEVGPSSDPFYHKMSELLGCR (on phage) [B6Ha-3-E9-IR]	24.2 ratio	1.7 ratio	–
YRGMLVLGRISGGAGKAASERPARIGQKVSAVNFYDWFV (on phage) [A6L-0-E3-IR]	26 ratio	–	–
GNGDGMFYQLLSLLVGRDMHV (on phage) [20E2B-3-C2-IGFR]	8.9 ratio	0.6 ratio	–
TFYSCLASLLTGTPQPNRGPWERCR (on phage) [20C-3-G3-IGFR]	32.3 ratio	1.2 ratio	–
GVRAMSFYDALVSVLGLGPSG (on phage) [20E2B-1-A6-IGFR]	18.1 ratio	1.1 ratio	–
DRDFCRFYERLTALVGGQVDGGWPC (on phage) [20C-3-F6-IGFR]	26.1 ratio	1.9 ratio	–
QPDHSYFYSLLQELVGSEERL (on phage) [20E2B-4-F9-IGFR]	14.7 ratio	–	–
HLADGQFHEKFYDWFERQISSRCNDC (on phage) [E2CA-3-E11-IGFR]	–	1 ratio	–
LRIANLFYQRLWDLAFGGGG (on phage) [20E2B-3-E8-IGFR]	16.7 ratio	1.5 ratio	–
AICDAGFHEHFYDWFALQVSDCGRQS (on phage) [H2CA-2-B11-IGFR]	4.6 ratio	1.6 ratio	0.3 ratio
